This is an account of results in patent publication US20090136526A1 (Seagen, published 2009).

Experiment [1] addresses T1, CD19 on CD19-positive tumor cell lines (human, UniProt P15391 20-556).
T1 sequence (looked up): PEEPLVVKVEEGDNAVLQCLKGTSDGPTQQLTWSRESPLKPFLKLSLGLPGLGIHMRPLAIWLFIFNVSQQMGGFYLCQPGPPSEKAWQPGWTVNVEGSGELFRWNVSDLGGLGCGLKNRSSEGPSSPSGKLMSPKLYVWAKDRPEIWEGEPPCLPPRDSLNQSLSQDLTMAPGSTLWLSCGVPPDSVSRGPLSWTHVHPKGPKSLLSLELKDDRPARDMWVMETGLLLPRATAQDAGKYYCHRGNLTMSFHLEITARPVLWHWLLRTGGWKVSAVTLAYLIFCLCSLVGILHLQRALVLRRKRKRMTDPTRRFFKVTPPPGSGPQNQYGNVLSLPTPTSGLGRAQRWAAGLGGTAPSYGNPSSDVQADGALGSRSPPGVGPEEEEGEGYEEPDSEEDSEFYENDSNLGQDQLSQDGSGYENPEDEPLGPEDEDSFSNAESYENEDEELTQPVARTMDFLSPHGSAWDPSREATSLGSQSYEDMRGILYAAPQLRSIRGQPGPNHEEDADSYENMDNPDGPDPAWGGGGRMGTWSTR
Put plainly: cell-based or functional assay.

The target in experiment [2] is CD19 on CD19-positive tumor cell lines (human) (UniProt P15391). Description: cell-based or functional assay.

In experiment [1], LT19 (antibody) returned an IC50 (ng/mL) of anti-CD19 antibody linked with 2°-ADC, cell viability (resazurin, 96 h), CA46 cells of 4 ng/mL; an IC50 (ng/mL) of anti-CD19 antibody linked with 2°-ADC, cell viability (resazurin, 96 h), HS Sultan cells of 112 ng/mL; an IC50 (ng/mL) of anti-CD19 antibody linked with 2°-ADC, cell viability (resazurin, 96 h), HT cells of 111 ng/mL; an IC50 (ng/mL) of anti-CD19 antibody linked with 2°-ADC, cell viability (resazurin, 96 h), MC 116 cells of 192 ng/mL. Moreover, in experiment [1], the IC50 (ng/mL) of anti-CD19 antibody linked with 2°-ADC, cell viability (resazurin, 96 h), Ramos cells came to 1 ng/mL and the IC50 (ng/mL) of anti-CD19 antibody linked with 2°-ADC, cell viability (resazurin, 96 h), Toledo cells stood at 584 ng/mL.
In turn, hBU12 (antibody) gave an internalization kinetics by FACS, CD21 low Ramos cells in experiment [1] of 50%.
In experiment [1], HIB19 (antibody) displayed an IC50 (ng/mL) of anti-CD19 antibody linked with 2°-ADC, cell viability (resazurin, 96 h), CA46 cells of 1 ng/mL; an IC50 (ng/mL) of anti-CD19 antibody linked with 2°-ADC, cell viability (resazurin, 96 h), HS Sultan cells of 97 ng/mL; an IC50 (ng/mL) of anti-CD19 antibody linked with 2°-ADC, cell viability (resazurin, 96 h), HT cells of 1000 ng/mL; an IC50 (ng/mL) of anti-CD19 antibody linked with 2°-ADC, cell viability (resazurin, 96 h), MC 116 cells of 188 ng/mL. In addition, in experiment [1], the IC50 (ng/mL) of anti-CD19 antibody linked with 2°-ADC, cell viability (resazurin, 96 h), Ramos cells worked out at 1 ng/mL and the IC50 (ng/mL) of anti-CD19 antibody linked with 2°-ADC, cell viability (resazurin, 96 h), Toledo cells was 1000 ng/mL.
The molecule hBU12-vcMMAE (antibody) yielded an internalization kinetics by FACS, CD21 low Ramos cells in experiment [1] of 50%.
In experiment [1], B-C3 (antibody) had an IC50 (ng/mL) of anti-CD19 antibody linked with 2°-ADC, cell viability (resazurin, 96 h), CA46 cells of 17 ng/mL; an IC50 (ng/mL) of anti-CD19 antibody linked with 2°-ADC, cell viability (resazurin, 96 h), HS Sultan cells of 234 ng/mL; an IC50 (ng/mL) of anti-CD19 antibody linked with 2°-ADC, cell viability (resazurin, 96 h), MC 116 cells of 195 ng/mL; an IC50 (ng/mL) of anti-CD19 antibody linked with 2°-ADC, cell viability (resazurin, 96 h), Ramos cells of 13 ng/mL. In experiment [1], this molecule displayed an IC50 (ng/mL) of anti-CD19 antibody linked with 2°-ADC, cell viability (resazurin, 96 h), Toledo cells of 359 ng/mL.

B1: cBU12 (antibody, V domains shown)
VH: QVTLKESGPGILQPSQTLSLTCSFSGFSLSTSGMGVGWIRQPSGKGLEWLAHIWWDDDKRYNPALKSRLTISKDTSSNQVFLKIASVDTADTAAYYCARMELWSYYFDYWGQGTTLTVSS
VL: ENVLTQSPAIMSASPGEKVTMTCSASSSVSYMHWYQQKSSTSPKLWIYDTSKLASGVPGRFSGSGSGNSHFLTISSMEAEDVATYYCFQGSVYPFTFGSGTKLEIKR
B1: in experiment [1], the “IC50 (ng/mL) of anti-CD19 antibody linked with 2°-ADC, cell viability (resazurin, 96 h), CA46 cells” value was found to be 7 ng/mL; the “IC50 (ng/mL) of anti-CD19 antibody linked with 2°-ADC, cell viability (resazurin, 96 h), HS Sultan cells” value was found to be 100 ng/mL; the “IC50 (ng/mL) of anti-CD19 antibody linked with 2°-ADC, cell viability (resazurin, 96 h), HT cells” value stood at 238 ng/mL; the “IC50 (ng/mL) of anti-CD19 antibody linked with 2°-ADC, cell viability (resazurin, 96 h), MC 116 cells” value was determined as 186 ng/mL. Further, in experiment [1], the “IC50 (ng/mL) of anti-CD19 antibody linked with 2°-ADC, cell viability (resazurin, 96 h), Ramos cells” value worked out at 5 ng/mL and the “IC50 (ng/mL) of anti-CD19 antibody linked with 2°-ADC, cell viability (resazurin, 96 h), Toledo cells” value is roughly 1000 ng/mL.

B2: SJ25-C1 (antibody, from another filing, V domains shown)
VH: EVKLQQSGAELVRPGSSVKISCKASGYAFSSYWMNWVKQRPGQGLEWIGQIYPGDGDTNYNGKFKGQATLTADKSSSTAYMQLSGLTSEDSAVYFCARKTISSVVDFYFDYWGQGTTVTVSS
VL: DIELTQSPKFMSTSVGDRVSVTCKASQNVGTNVAWYQQKPGQSPKPLIYSATYRNSGVPDRFTGSGSGTDFTLTITNVQSKDLADYFCQQYNRYPYTSGGGTKLEI
In experiment [2], B2 came in with an IC50 (ng/mL) of anti-CD19 antibody linked with 2°-ADC, cell viability (resazurin, 96 h), CA46 cells of 4 ng/mL; an IC50 (ng/mL) of anti-CD19 antibody linked with 2°-ADC, cell viability (resazurin, 96 h), HS Sultan cells of 150 ng/mL; an IC50 (ng/mL) of anti-CD19 antibody linked with 2°-ADC, cell viability (resazurin, 96 h), MC 116 cells of 200 ng/mL; an IC50 (ng/mL) of anti-CD19 antibody linked with 2°-ADC, cell viability (resazurin, 96 h), Ramos cells of 3 ng/mL. Besides, in experiment [2], the IC50 (ng/mL) of anti-CD19 antibody linked with 2°-ADC, cell viability (resazurin, 96 h), Toledo cells was found to be 512 ng/mL.
